The source of these data is IntAct's records for PubMed 25910212.

First the molecules themselves.
B1: Methylmalonyl-CoA epimerase, mitochondrial (Homo sapiens), Q96PE7 (parent)
chain: MARVLKAAAANAVGLFSRLQAPIPTVRASSTSQPLDQVTGSVWNLGRLNHVAIAVPDLEKAAAFYKNILGAQVSEAVPLPEHGVSVVFVNLGNTKMELLHPLGRDSPIAGFLQKNKAGGMHHICIEVDNINAAVMDLKKKKIRSLSEEVKIGAHGKPVIFLHPKDCGGVLVELEQA
B2: Polycomb complex protein BMI-1 (Homo sapiens), P35226 (parent)
chain: MHRTTRIKITELNPHLMCVLCGGYFIDATTIIECLHSFCKTCIVRYLETSKYCPICDVQVHKTRPLLNIRSDKTLQDIVYKLVPGLFKNEMKRRRDFYAAHPSADAANGSNEDRGEVADEDKRIITDDEIISLSIEFFDQNRLDRKVNKDKEKSKEEVNDKRYLRCPAAMTVMHLRKFLRSKMDIPNTFQIDVMYEEEPLKDYYTLMDIAYIYTWRRNGPLPLKYRVRPTCKRMKISHQRDGLTNAGELESDSGSDKANSPAGGIPSTSSCLPSPSTPVQSPHPQFPHISSTMNGTSNSPSGNHQSSFANRPRKSSVNGSSATSSG
partner: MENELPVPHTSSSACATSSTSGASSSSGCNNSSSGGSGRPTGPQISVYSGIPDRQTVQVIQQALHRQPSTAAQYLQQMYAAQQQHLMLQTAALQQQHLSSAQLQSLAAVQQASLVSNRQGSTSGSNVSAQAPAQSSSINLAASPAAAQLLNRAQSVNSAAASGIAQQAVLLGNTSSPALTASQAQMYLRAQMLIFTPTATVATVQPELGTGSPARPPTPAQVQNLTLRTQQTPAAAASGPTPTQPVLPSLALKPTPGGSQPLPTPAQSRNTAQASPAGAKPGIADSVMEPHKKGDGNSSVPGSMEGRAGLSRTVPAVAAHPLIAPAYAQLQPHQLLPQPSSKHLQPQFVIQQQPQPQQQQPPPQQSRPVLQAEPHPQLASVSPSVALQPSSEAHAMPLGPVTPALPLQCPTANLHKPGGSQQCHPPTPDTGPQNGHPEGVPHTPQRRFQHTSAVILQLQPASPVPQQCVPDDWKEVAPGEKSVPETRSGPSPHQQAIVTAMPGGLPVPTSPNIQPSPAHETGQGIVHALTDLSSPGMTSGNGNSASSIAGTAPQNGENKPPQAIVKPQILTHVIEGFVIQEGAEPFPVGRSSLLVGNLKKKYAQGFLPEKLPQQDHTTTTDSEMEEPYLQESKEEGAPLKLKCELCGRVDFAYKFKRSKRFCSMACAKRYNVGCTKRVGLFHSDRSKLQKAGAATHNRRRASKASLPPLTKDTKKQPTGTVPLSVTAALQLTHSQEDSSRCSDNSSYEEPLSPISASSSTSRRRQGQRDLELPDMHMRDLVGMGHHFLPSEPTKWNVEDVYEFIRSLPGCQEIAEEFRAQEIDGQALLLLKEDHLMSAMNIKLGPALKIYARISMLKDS
B3: Carbonic anhydrase-related protein (Homo sapiens), P35219 (parent)
chain: MADLSFIEDTVAFPEKEEDEEEEEEGVEWGYEEGVEWGLVFPDANGEYQSPINLNSREARYDPSLLDVRLSPNYVVCRDCEVTNDGHTIQVILKSKSVLSGGPLPQGHEFELYEVRFHWGRENQRGSEHTVNFKAFPMELHLIHWNSTLFGSIDEAVGKPHGIAIIALFVQIGKEHVGLKAVTEILQDIQYKGKSKTIPCFNPNTLLPDPLLRDYWVYEGSLTIPPCSEGVTWILFRYPLTISQLQIEEFRRLRTHVKGAELVEGCDGILGDNFRPTQPLSDRVIRAAFQ
partner: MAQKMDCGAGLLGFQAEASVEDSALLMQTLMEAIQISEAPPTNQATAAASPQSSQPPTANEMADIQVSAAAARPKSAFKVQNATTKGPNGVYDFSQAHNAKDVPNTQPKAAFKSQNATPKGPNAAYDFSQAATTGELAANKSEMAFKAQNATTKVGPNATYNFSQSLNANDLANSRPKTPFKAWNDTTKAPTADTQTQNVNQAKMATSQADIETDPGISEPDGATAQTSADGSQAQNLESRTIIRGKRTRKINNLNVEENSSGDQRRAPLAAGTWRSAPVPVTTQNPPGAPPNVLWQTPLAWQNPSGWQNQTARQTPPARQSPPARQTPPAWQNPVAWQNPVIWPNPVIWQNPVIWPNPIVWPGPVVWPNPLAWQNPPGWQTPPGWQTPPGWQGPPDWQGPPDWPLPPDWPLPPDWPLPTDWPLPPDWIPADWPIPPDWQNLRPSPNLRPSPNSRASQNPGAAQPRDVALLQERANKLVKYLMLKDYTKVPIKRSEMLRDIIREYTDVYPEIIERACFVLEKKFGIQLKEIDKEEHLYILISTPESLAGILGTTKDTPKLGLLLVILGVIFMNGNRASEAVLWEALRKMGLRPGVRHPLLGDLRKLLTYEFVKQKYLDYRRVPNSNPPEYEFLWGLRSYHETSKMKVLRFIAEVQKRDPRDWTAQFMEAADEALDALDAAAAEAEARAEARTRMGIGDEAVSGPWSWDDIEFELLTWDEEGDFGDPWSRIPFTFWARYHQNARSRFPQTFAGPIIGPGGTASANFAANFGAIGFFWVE
B4: Plakophilin-2 (Homo sapiens), Q99959-2 (parent)
chain: MAAPGAPAEYGYIRTVLGQQILGQLDSSSLALPSEAKLKLAGSSGRGGQTVKSLRIQEQVQQTLARKGRSSVGNGNLHRTSSVPEYVYNLHLVENDFVGGRSPVPKTYDMLKAGTTATYEGRWGRGTAQYSSQKSVEERSLRHPLRRLEISPDSSPERAHYTHSDYQYSQRSQAGHTLHHQESRRAALLVPPRYARSEIVGVSRAGTTSRQRHFDTYHRQYQHGSVSDTVFDSIPANPALLTYPRPGTSRSMGNLLEKENYLTAGLTVGQVRPLVPLQPVTQNRASRSSWHQSSFHSTRTLREAGPSVAVDSSGRRAHLTVGQAAAGGSGNLLTERSTFTDSQLGNADMEMTLERAVSMLEADHMLPSRISAAATFIQHECFQKSEARKRVNQLRGILKLLQLLKVQNEDVQRAVCGALRNLVFEDNDNKLEVAELNGVPRLLQVLKQTRDLETKKQITGLLWNLSSNDKLKNLMITEALLTLTENIIIPFSGWPEGDYPKANGLLDFDIFYNVTGCLRNMSSAGADGRKAMRRCDGLIDSLVHYVRGTIADYQPDDKATENCVCILHNLSYQLEAELPEKYSQNIYIQNRNIQTDNNKSIGCFGSRSRKVKEQYQDVPMPEEKSNPKGVEWLWHSIVIRMYLSLIAKSVRNYTQEASLGALQNLTAGSGPMPTSVAQTVVQKESGLQHTRKMLHVGDPSVKKTAISLLRNLSRNLSLQNEIAKETLPDLVSIIPDTVPSTDLLIETTASACYTLNNIIQNSYQNARDLLNTGGIQKIMAISAGDAYASNKASKAASVLLYSLWAHTELHHAYKKAQFKKTDFVNSRTAKAYHSLKD

The first test covers variants of B1. Conditions: with AGTRAP.
In the case of R143H, the “effect of a mutation on the interaction” value is on record as “with no effect”.

In the case of R143C, the “effect of a mutation on the interaction” value is “with no effect”.

The variants in the next test derive from B1. As to conditions: with CMTM5, Q96DZ9-2.
Chain of CMTM5, Q96DZ9-2 (Q96DZ9 other isoform, or with tags, fused parts or gaps): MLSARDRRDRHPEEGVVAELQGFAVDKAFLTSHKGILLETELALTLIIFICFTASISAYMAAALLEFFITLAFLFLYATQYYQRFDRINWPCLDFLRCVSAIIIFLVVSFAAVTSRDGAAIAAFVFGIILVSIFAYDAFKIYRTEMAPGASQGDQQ
Regarding R143H, the “effect of a mutation on the interaction” value is given as “with no effect”.

Turning to R143C, the “effect of a mutation on the interaction” value is recorded as “with no effect”.

Variants of B2 are the subject of the next test. As to conditions: with PHC2, Q8IXK0-5.
Consider C18Y, for which the “effect of a mutation on the interaction” value was “disrupting interaction strength”.

Variants of B3 are the subject of a further test. Conditions: with magd1_human MAGED1, Q9Y5V3.
For S100P, the “effect of a mutation on the interaction” value is “disrupting interaction strength”.

A further test covers variants of B4. Conditions: with MTUS2, Q5JR59-3.
Chain of MTUS2, Q5JR59-3 (Q5JR59 other isoform, or with tags, fused parts or gaps): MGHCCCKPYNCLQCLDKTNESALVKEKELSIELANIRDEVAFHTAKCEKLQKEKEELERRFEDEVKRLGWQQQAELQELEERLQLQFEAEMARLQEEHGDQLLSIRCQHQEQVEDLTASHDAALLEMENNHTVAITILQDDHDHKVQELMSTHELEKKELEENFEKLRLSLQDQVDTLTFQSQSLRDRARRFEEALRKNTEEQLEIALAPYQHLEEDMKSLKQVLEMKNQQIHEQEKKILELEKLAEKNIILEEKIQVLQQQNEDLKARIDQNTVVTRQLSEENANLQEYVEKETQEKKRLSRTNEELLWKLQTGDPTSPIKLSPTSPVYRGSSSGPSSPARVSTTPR
As for A264V, the “effect of a mutation on the interaction” value is “with no effect”.

As to S644P, the “effect of a mutation on the interaction” value was “disrupting interaction strength”.

Consider S140F, for which the “effect of a mutation on the interaction” value is given as “disrupting interaction strength”.
